Holding throughout (assay): EMSA
A general note: Mobility shift assays separate free from complexed probe on a gel.

Data set [1] concerns the target T1, H-NS wild type;Tn5 HA transposase (Escherichia coli?;Tn5, UniProt P0ACF8;Q46731 1-137;1-476, |E54K;M56A;L372P).
The target in data set [2] is T2, Tn5 HA transposase (Tn5, UniProt Q46731 1-476, E54K;M56A;L372P).
The next data set has as its target T3, H-NS wild type (UniProt P0ACF8 1-137).
T3 sequence: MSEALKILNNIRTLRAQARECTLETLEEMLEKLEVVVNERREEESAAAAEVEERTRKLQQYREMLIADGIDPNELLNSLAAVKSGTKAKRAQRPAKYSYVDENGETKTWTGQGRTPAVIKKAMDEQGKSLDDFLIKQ

For data set [3], the target named is T2, Tn5 HA transposase. This is another data set of the same source.
Data set [4] deals with H-NS wild type;Tn5 transposase delta369 EK/MA (Escherichia coli?;Tn5, UniProt P0ACF8;Q46731 1-137;1-368, |E54K;M56A).
Data set [5] addresses T1, H-NS wild type;Tn5 HA transposase. The source holds these as a separate data set.
Data set [6] has as its target Tn5 transposase delta369 EK/MA (Tn5, UniProt Q46731 1-368, E54K;M56A).
Data set [7] deals with T1, H-NS wild type;Tn5 HA transposase. This is another data set of the same source.
The target in data set [8] is H-NS P116S;Tn5 transposase delta369 EK/MA (Escherichia coli?;Tn5, UniProt P0ACF8;Q46731 1-137;1-368, P116S|E54K;M56A).

Two molecules from publication PMC2632911 can be followed below.

Like-named read-outs stand apart in the source and are kept apart here.

B1: 20 bp ME (dsDNA)
DNA 1: CTGTCTCTTATACACATCTT
DNA 2: AAGATGTGTATAAGAGACAG
In the case of B1, the binding result in data set [1] was “binds”; with Tn5 HA transposase [2], “binds”; with H-NS wild type, “no binding”.

B2: 53 bp ME (WT) (dsDNA)
DNA 1: CCCTGCAGGTCGACTGTCTCTTATACACATCTTGAGTGAGTGAGCATGCATGT
DNA 2: ACATGCATGCTCACTCACTCAAGATGTGTATAAGAGACAGTCGACCTGCAGGG
As to B2, the binding result with Tn5 HA transposase [3] is “binds”; in data set [4], “binds”; in [6] it was “binds”; in data set [8], “no binding”. Also, the binding signal in data set [5] was 11 fold increase; in data set [7], < 2 fold increase.
